Measured values reported in patent US20230406925A1 (PHYLAXIS BIOSCIENCE, published 2023).
Blank lines part the entries; values can stand above or below the binder they belong to.

Tests used:
[1] = target: T1, human Siglec-8 (full-length, on cells) (human, UniProt Q9NYZ4 17-499); experiment: flow cytometry on human eosinophils (CD16- CCR3+) from whole blood, anti-human AF647 secondary, MFI
T1 construct: Used for full-length human Siglec-8 transiently expressed on CHO or 293 cells and for native Siglec-8 on primary human eosinophils
Text: To determine if increasing the valency of Siglec-8 antibodies could enhance agonist activity, the parental llama B12, D1 and E2 VHH sequences were used to generate tetravalent (Tet-B12 (cx8467; SEQ ID NO:50 linked to an Fc), Tet-D1 (cx8469; SEQ ID NO:56 linked to an Fc), and Tet-E2 (cx8463; SEQ ID NO:62 linked to an Fc)) and hexavalent (Hex-B12 (cx8466; SEQ ID NO:51 linked to an Fc), Hex-D1 (cx8523; SEQ ID NO:57 linked to an Fc), and Hex-E2 (cx8522; SEQ ID NO:165 linked to an Fc)), Siglec8-VHH-Fc antibodies linked to a reduced effector function xELL human Fc region via linker 2. The bivalent (Bi-B12 (cx8982), Bi-D1 (cx8983) and Bi-E2 (cx8984)), tetravalent, and hexavalent Siglec8-VHH-Fc antibodies were assessed by flow cytometry for binding to eosinophils (CD16⁻ CCR3⁺). […] Cells were spun down and then resuspended in titrated test articles starting at 200 nM 1:4 and incubated for 30 minutes at 4° C. before being washed twice and resuspended in secondary mixture (2*; anti-CCR3 FITC, anti-human AF647, PI, anti-CD16 BV605) and incubated for 30 minutes at 4° C., washed twice, and bound antibodies were detected via flow cytometry (Novocyte). […]

[2] = target: T1, human Siglec-8 (full-length, on cells); experiment: flow cytometry, CHO cells transiently transfected with full-length human Siglec-8, A647 anti-human Fc-gamma secondary, Mean RL1-H
Experimental: Binding of the anti-human Siglec-8 VHHs, B12, D1, E2, and G2, as a bivalent VHH-hIgG1-xELL-Fc (VHH of SEQ ID NO: 49, 55, 61, and 1, respectively linked to an Fc xELL via linker 2, these constructs are also designated cx8982, cx8983, cx8984, and cx10382, respectively) was determined by flow cytometry using CHO cells that had been transiently transfected with full-length human Siglec-8. Binding specificity was assessed using untransfected (UT) CHO cells as a control. For the binding assays, 50,000 Siglec-8 CHOs or UT CHOs were seeded in a 96-well plate and a titration of anti-Siglec8-VHH-xELL was added in FACS Buffer (PBS 1% BSA, 0.1% NaN3 pH 7.4) incubating for 30 minutes at 4° C. After washing, the plates were incubated with an A647-conjugated anti-human Fcγ specific secondary antibody (Jackson ImmunoResearch) diluted 1:2000 in FACS buffer for 30 minutes at 4° C. The plates were washed, and binding was determined by flow cytometry quantitating anti-human A647 mean fluorescent intensity using an Intellicyt iQue Plus.

[3] = target: T1, human Siglec-8 (full-length, on cells); experiment: flow cytometry, CHO cells transfected with human Siglec-8, anti-human Fc-gamma secondary, Median RL1-H
Experimental: In additional studies, the parental llama G2 sequence was humanized and multivalent hzSiglec8-G2v14-Fc antibodies were cloned with a reduced effector function xELL human Fc. Binding of bivalent (cx11422; SEQ ID NO: 5 linked to an Fc xELL via linker 2), tetravalent (cx11580; SEQ ID NO: 9 linked to an Fc xELL via linker 2), and hexavalent (cx11579; SEQ ID NO: 10 linked to an Fc xELL via linker 2) hzSiglec8-G2v14-Fc antibodies were assessed by flow cytometry using CHO cells transfected with human Siglec-8. A titration series of the fusion proteins were incubated with the Siglec8-expressing CHO cells (5×10⁴ cells/well) for 30 minutes at 4° C. in FACS Buffer (PBS 1% BSA, 0.1% NaN3 pH 7.4) in 96 well plates. Following one 150 μL wash with FACS buffer, an APC-conjugated anti-human Fcγ specific secondary antibody (Jackson ImmunoResearch) was added, and cells were incubated for 30 minutes at 4° C. Following one additional wash in FACS buffer, bound antibodies were detected via flow cytometry (iQue Intellicyte).
The calculated affinity was similar between the bivalent, tetravalent, and hexavalent hzSiglec8-G2v14-Fc antibodies. The observed Bmax was reduced with increasing valency as anticipated, due the fact that the Fc portion of the antibody was detected in this assay and the ratio of Fc regions to anti-Siglec-8 binding domains is inverse to valency.

T1 sequence (Q9NYZ4 17-499): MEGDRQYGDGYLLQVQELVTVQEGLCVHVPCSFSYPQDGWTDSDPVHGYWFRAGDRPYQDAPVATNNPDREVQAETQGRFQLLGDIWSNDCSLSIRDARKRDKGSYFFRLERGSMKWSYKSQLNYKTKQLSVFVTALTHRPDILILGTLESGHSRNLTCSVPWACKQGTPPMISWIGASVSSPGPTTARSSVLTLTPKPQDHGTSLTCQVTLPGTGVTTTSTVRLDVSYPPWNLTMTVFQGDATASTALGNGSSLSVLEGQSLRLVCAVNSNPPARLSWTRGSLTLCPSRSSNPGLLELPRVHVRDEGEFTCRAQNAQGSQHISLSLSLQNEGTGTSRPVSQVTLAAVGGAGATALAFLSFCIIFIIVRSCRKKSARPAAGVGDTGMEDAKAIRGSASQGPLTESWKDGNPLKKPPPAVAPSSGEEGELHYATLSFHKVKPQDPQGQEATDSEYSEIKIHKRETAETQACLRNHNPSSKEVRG

EC50 (read off the curve) [1]: ~0.05 nM
B1: anti-Siglec8-D1-xELL, bivalent VHH-hIgG1-xELL-Fc (cx8983) (Fc fusion)
chain: QVQLVESGGGLVQPGGSLRLSCAASGSIASIHGMGWYRQAPGKERELVAAIAGEGSTYYADSVKGRFTISRDFAKNTLYLQMNNLKAEDTAMYYCANNDERDDYWGQGTQVTVKPGGGGDKTHTCPPCPAPGGPSVFLFPPKPKDTLMISRTPEVTCVVVDVSHEDPEVKFNWYVDGVEVHNAKTKPREEQYNSTYRVVSVLTVLHQDWLNGKEYKCKVSNKALPAPIEKTISKAKGQPREPQVYTLPPSRDELTKNQVSLTCLVKGFYPSDIAVEWESNGQPENNYKTTPPVLDSDGSFFLYSKLTVDKSRWQQGNVFSCSVMHEALHNHYTQKSLSLSPGK
notes: also called Bi-D1

EC50 (read off the curve) [2]: ~0.3 nM
B2: anti-Siglec8-E2-xELL, bivalent VHH-hIgG1-xELL-Fc (cx8984) (Fc fusion)
chain: QVQLVESGGGLVQPGGSLRLSCATSGIIFTSNVINWYRQAPGKQREFVAFITSITSGQSTMYADAVKGRFTVSRDNDKNIGYLQMTSLQPEDTARYVCNVGAYWGQGTQVTVKPGGGGDKTHTCPPCPAPGGPSVFLFPPKPKDTLMISRTPEVTCVVVDVSHEDPEVKFNWYVDGVEVHNAKTKPREEQYNSTYRVVSVLTVLHQDWLNGKEYKCKVSNKALPAPIEKTISKAKGQPREPQVYTLPPSRDELTKNQVSLTCLVKGFYPSDIAVEWESNGQPENNYKTTPPVLDSDGSFFLYSKLTVDKSRWQQGNVFSCSVMHEALHNHYTQKSLSLSPGK
notes: also called Bi-E2

EC50 (read off the curve) [3]: ~0.03 nM
B3: tetravalent hzSiglec8-G2v14-Fc antibody, Fc xELL (cx11580) (Fc fusion)
chain: EVQLLESGGGEVQPGGSLRLSCAASGSISIFSMYVVAWYRQAPGKEREWVAFIQRGGTANYAESAKGRFTISRDNAKNTVYLQMSSLRAEDTAVYYCNYINTDNEIGGPWGQGTLVTVKPGGSGGSEVQLLESGGGEVQPGGSLRLSCAASGSISIFSMYVVAWYRQAPGKEREWVAFIQRGGTANYAESAKGRFTISRDNAKNTVYLQMSSLRAEDTAVYYCNYINTDNEIGGPWGQGTLVTVKPGGGGDKTHTCPPCPAPGGPSVFLFPPKPKDTLMISRTPEVTCVVVDVSHEDPEVKFNWYVDGVEVHNAKTKPREEQYNSTYRVVSVLTVLHQDWLNGKEYKCKVSNKALPAPIEKTISKAKGQPREPQVYTLPPSRDELTKNQVSLTCLVKGFYPSDIAVEWESNGQPENNYKTTPPVLDSDGSFFLYSKLTVDKSRWQQGNVFSCSVMHEALHNHYTQKSLSLSPGK
